Experimental data taken from PMC4701444 (PLoS ONE, 2016).
Bridge positions count the residues as written; N and C are the ends. Ends that are not written are not given here. * marks the point of attachment. 5FAM = O=C1OC2(c3ccc(O)cc3Oc3cc(O)ccc32)c2ccc(C(=O)*)cc21

Columns and labels:
[1] = target: ΔDII-PfAMA1 (PfAMA1 DI-DII with residues 351-387 of the DII loop replaced by 7 Gly/Ser residues) (Plasmodium falciparum) (UniProt Q7KQK5); experiment: ITC; 25°C, MicroCal iTC200; cell: PfAMA1 or ΔDII-PfAMA1 (10 μM); syringe: PfRON2D3-TRX (110 μM), 17 injections of 2.2 μL; 20 mM Hepes pH 7.5, 150 mM NaCl; one binding site model
[2] = target: F*PfRON2sp1 (39 aa) [2021-2059], fluorescein-labeled PfRON2sp1 peptide (Plasmodium falciparum); experiment: fluorescence polarisation; anisotropy kinetics at 25°C; association: 10 nM labeled probe with 50, 100, 200 nM protein; dissociation: 10 nM preformed complex challenged with 2500 or 5000 nM unlabeled PfRON2sp1; global fit to a one-intermediate model; PBS pH 7.4, at least 0.1% BSA
[3] = target: F*PfRON2sp1 (39 aa) [2021-2059], fluorescein-labeled PfRON2sp1 peptide (Plasmodium falciparum); experiment: fluorescence polarisation; anisotropy titration at 25°C; 10 nM F*PfRON2sp1 titrated with protein (0 to 10 μM); PBS pH 7.4, at least 0.1% BSA
[4] = target: F*PfRON2sp1 (39 aa) [2021-2059], fluorescein-labeled PfRON2sp1 peptide (Plasmodium falciparum); experiment: fluorescence polarisation; anisotropy titration at 20°C; 10 nM F*PfRON2sp1 titrated with protein (0 to 10 μM); PBS pH 7.4, at least 0.1% BSA
[5] = target: F*PfRON2sp1 (39 aa) [2021-2059], fluorescein-labeled PfRON2sp1 peptide (Plasmodium falciparum); experiment: fluorescence polarisation; anisotropy titration at 30°C; 10 nM F*PfRON2sp1 titrated with protein (0 to 10 μM); PBS pH 7.4, at least 0.1% BSA
[6] = target: F*PfRON2sp1 (39 aa) [2021-2059], fluorescein-labeled PfRON2sp1 peptide (Plasmodium falciparum); experiment: fluorescence polarisation; anisotropy kinetics at 30°C; association: 10 nM labeled probe with 50, 100, 200 nM protein; dissociation: 10 nM preformed complex challenged with 2500 or 5000 nM unlabeled PfRON2sp1; global fit to a one-intermediate model; PBS pH 7.4, at least 0.1% BSA
[7] = target: F*PfRON2sp1 (39 aa) [2021-2059], fluorescein-labeled PfRON2sp1 peptide (Plasmodium falciparum); experiment: fluorescence polarisation; anisotropy kinetics at 20°C; association: 10 nM labeled probe with 50, 100, 200 nM protein; dissociation: 10 nM preformed complex challenged with 2500 or 5000 nM unlabeled PfRON2sp1; global fit to a one-intermediate model; PBS pH 7.4, at least 0.1% BSA
[8] = target: T1, PfAMA1 (DI-DII of Plasmodium falciparum Apical Membrane Antigen 1, 3D7, residues 104-438) (Plasmodium falciparum, UniProt Q7KQK5 104-438); experiment: ITC; 25°C, MicroCal iTC200; cell: PfAMA1 or ΔDII-PfAMA1 (10 μM); syringe: PfRON2D3-TRX (110 μM), 17 injections of 2.2 μL; 20 mM Hepes pH 7.5, 150 mM NaCl; one binding site model; conditions: both partners purified
T1 construct: codon-optimized synthetic gene; also called native PfAMA1; PfAMA1 DI-DII construct
T1 sequence: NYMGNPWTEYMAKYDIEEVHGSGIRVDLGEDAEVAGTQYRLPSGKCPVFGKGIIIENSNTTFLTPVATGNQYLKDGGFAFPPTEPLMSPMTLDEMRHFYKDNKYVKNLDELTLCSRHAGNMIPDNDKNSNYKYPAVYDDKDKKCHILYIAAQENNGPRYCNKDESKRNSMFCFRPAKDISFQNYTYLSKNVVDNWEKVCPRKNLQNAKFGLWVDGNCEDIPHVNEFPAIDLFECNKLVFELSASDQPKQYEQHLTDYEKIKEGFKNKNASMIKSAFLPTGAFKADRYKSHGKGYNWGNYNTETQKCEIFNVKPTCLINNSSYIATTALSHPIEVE

[9] = target: T1, PfAMA1 (DI-DII of Plasmodium falciparum …); experiment: as above; conditions: both partners purified; remark: listed apart in the source
[10] = target: T1, PfAMA1 (DI-DII of Plasmodium falciparum …); experiment: fluorescence polarisation; anisotropy kinetics at 30°C; association: 10 nM labeled probe with 50, 100, 200 nM protein; dissociation: 10 nM preformed complex challenged with 2500 or 5000 nM unlabeled PfRON2sp1; global fit to a one-intermediate model; PBS pH 7.4, at least 0.1% BSA; conditions: both partners purified
[11] = target: T1, PfAMA1 (DI-DII of Plasmodium falciparum …); experiment: fluorescence polarisation; anisotropy kinetics at 25°C; association: 10 nM labeled probe with 50, 100, 200 nM protein; dissociation: 10 nM preformed complex challenged with 2500 or 5000 nM unlabeled PfRON2sp1; global fit to a one-intermediate model; PBS pH 7.4, at least 0.1% BSA; conditions: both partners purified
[12] = target: T1, PfAMA1 (DI-DII of Plasmodium falciparum …); experiment: fluorescence polarisation; anisotropy titration at 20°C; 10 nM F*PfRON2sp1 titrated with protein (0 to 10 μM); PBS pH 7.4, at least 0.1% BSA; conditions: both partners purified
[13] = target: T1, PfAMA1 (DI-DII of Plasmodium falciparum …); experiment: fluorescence polarisation; anisotropy titration at 25°C; 10 nM F*PfRON2sp1 titrated with protein (0 to 10 μM); PBS pH 7.4, at least 0.1% BSA; conditions: both partners purified
[14] = target: T1, PfAMA1 (DI-DII of Plasmodium falciparum …); experiment: fluorescence polarisation; anisotropy kinetics at 20°C; association: 10 nM labeled probe with 50, 100, 200 nM protein; dissociation: 10 nM preformed complex challenged with 2500 or 5000 nM unlabeled PfRON2sp1; global fit to a one-intermediate model; PBS pH 7.4, at least 0.1% BSA; conditions: both partners purified
[15] = target: T1, PfAMA1 (DI-DII of Plasmodium falciparum …); experiment: fluorescence polarisation; anisotropy titration at 30°C; 10 nM F*PfRON2sp1 titrated with protein (0 to 10 μM); PBS pH 7.4, at least 0.1% BSA; conditions: both partners purified

Molecule: PfRON2D3-TRX (thioredoxin fusion of PfRON2D3, amino acids Asp2021 to Ser2059) (domain or fragment)
- Kd [1]: 0.0926 µM
- dH [1]: -49.4 kJ/mol

Molecule: ΔDII-PfAMA1 (PfAMA1 DI-DII with residues 351-387 of the DII loop replaced by 7 Gly/Ser residues) (from UniProt Q7KQK5 104-350; Q7KQK5 388-438) (domain or fragment)
- Kd [2]: 0.0801 µM
- complex half-life (calculated from the one-intermediate model) [2]: 69.9 s
- complex half-life (experimental) [2]: 48 s
- dH (overall, summation of the transition states from the kinetic fit) [2]: -44.4 kJ/mol
- dH of step 1 (formation of the intermediate) [2]: -69.9 kJ/mol
- k1 (step 1, forward: reactants to intermediate) [2]: 116000 M⁻¹ s⁻¹
- k1/k2 (association constant of step 1) [2]: 1.17e+07 M⁻¹
- k2 (step 1, reverse: intermediate to reactants) [2]: 0.0099 s⁻¹
- k3 (step 2, forward: intermediate to complex) [2]: 0.0074 s⁻¹
- k3/k4 (equilibrium constant of step 2) [2]: 0.067
- k4 (step 2, reverse: complex to intermediate) [2]: 0.11 s⁻¹
- Kd [3]: 0.094 µM
- Kd [4]: 0.06 µM
- Kd [5]: 0.125 µM
- Kd [6]: 0.126 µM
- complex half-life (calculated from the one-intermediate model) [6]: 30 s
- complex half-life (experimental) [6]: 30 s
- k1 (step 1, forward: reactants to intermediate) [6]: 168000 M⁻¹ s⁻¹
- k1/k2 (association constant of step 1) [6]: 7.35e+06 M⁻¹
- k2 (step 1, reverse: intermediate to reactants) [6]: 0.0229 s⁻¹
- k3 (step 2, forward: intermediate to complex) [6]: 0.0117 s⁻¹
- k3/k4 (equilibrium constant of step 2) [6]: 0.08
- k4 (step 2, reverse: complex to intermediate) [6]: 0.147 s⁻¹
- Kd [7]: 0.05 µM
- complex half-life (calculated from the one-intermediate model) [7]: 166 s
- complex half-life (experimental) [7]: 100 s
- k1 (step 1, forward: reactants to intermediate) [7]: 78900 M⁻¹ s⁻¹
- k1/k2 (association constant of step 1) [7]: 1.89e+07 M⁻¹
- k2 (step 1, reverse: intermediate to reactants) [7]: 0.00417 s⁻¹
- k3 (step 2, forward: intermediate to complex) [7]: 0.00459 s⁻¹
- k3/k4 (equilibrium constant of step 2) [7]: 0.056
- k4 (step 2, reverse: complex to intermediate) [7]: 0.0812 s⁻¹

B1: PfRON2D3-TRX (thioredoxin fusion of PfRON2D3, amino acids Asp2021 to Ser2059) (domain or fragment)
chain: DITQQAKDIGAGPVASCFTTRMSPPQQICLNSVVNTALS
notes: Modified pET32a vector with N-terminal hexahistidine and thioredoxin tags and a thrombin cleavage site; the fusion was used uncleaved in ITC; also called TRX-fused peptide; not shown: thioredoxin (TRX), N-terminal, kept
- dH [8]: -50.63 ± 0.418 kJ/mol
- Kd [9]: 0.0429 µM

B2: F*PfRON2sp1 (39 aa) [2021-2059], fluorescein-labeled PfRON2sp1 peptide (peptide)
peptide: 5FAM-DITQQAKDIGAGPVASCFTTRMSPPQQICLNSVVNTALS
modifications: disulfide 17-29
notes: Rhoptry Neck Protein 2 (RON2) of Plasmodium falciparum, residues 2021-2059; also called labeled peptide; labeled probe; source: synthetic peptide, bought: Kinexus (purity ≥ 95%)
- Kd [10]: 0.0438 ± 0.011 µM
- Kd [11]: 0.0382 ± 0.01 µM
- Kd [12]: 0.031 ± 0.002 µM
- Kd [13]: 0.043 ± 0.003 µM
- Kd [14]: 0.0323 ± 0.008 µM
- Kd [15]: 0.061 ± 0.005 µM
